Non-standard residues stand in square brackets, D forms with d. No end group written: not given here. *: point of attachment. Biotin = O=C1N[C@H]2[C@H](CS[C@H]2CCCCC(=O)*)N1; pY = N[C@@H](Cc1ccc(OP(=O)(O)O)cc1)C(=O)O
B5: EAT-2 127 peptide, biotinylated, phosphorylated (peptide)
peptide: Biotin-NSNSD[pY]VDVLP
B6: LCK-SH3-SH2 (aa 58 to 230) (domain or fragment, human, UniProt P06239 58-230, looked up)
chain: ASPLQDNLVIALHSYEPSHDGDLGFEKGEQLRILEQSGEWWKAQSLTTGQEGFIPFNFVAKANSLEPEPWFFKNLSRKDAERQLLAPGNTHGSFLIRESESTAGSFSLSVRDFDQNQGEVVKHYKIRNLDNGGFYISPRITFPGLHELVRHYTNASDGLCTRLSRPCQTQKPQ
B7: FYN-SH3-SH2 (aa 82 to 248) (domain or fragment)
chain: not shown

Experiments:
Experiment in all cases: SPR
[1] = target: B7
[2] = target: B6
[3] = target: T1, PLC-γ1 SH2 N+C (aa 545 to 749) (human, UniProt P19174 545-749)
T1 sequence (looked up): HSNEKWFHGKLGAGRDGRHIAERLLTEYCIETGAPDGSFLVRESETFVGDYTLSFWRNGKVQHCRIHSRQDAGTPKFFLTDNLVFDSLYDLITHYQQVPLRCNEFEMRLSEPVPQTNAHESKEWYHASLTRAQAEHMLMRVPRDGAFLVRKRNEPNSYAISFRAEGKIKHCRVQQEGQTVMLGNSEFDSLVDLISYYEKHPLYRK

[4] = target: B5

B1: CD244 ITSM 1 peptide, biotinylated, phosphorylated (peptide)
peptide: Biotin-EFLTI[pY]EDVKD
B1 was tested, and the Kd [1] was roughly 0.2 µM and the Kd [2] was roughly 2 µM.

B2: LAT 132 peptide, biotinylated, phosphorylated (peptide)
peptide: Biotin-HNPG[pY]LVVLP
B2 showed a Kd [3] of roughly 0.02 µM.

B3: CD2-322 peptide, biotinylated (peptide)
peptide: Biotin-QKGPPLPRPRVQPKPPHG
Binder B3 has a Kd [1] of roughly 4 µM and a Kd [2] greater than 1000 µM.

B4: CD2-281-305 peptide, biotinylated (peptide)
peptide: Biotin-HPPPPPGHRSQAPSHRPPPPGHRVQ
B4 was tested, and the Kd [1] was roughly 4 µM and the Kd [2] was greater than 1000 µM.

B5 showed a Kd [3] of roughly 0.04 µM.

B6 was tested, and the “fold weaker than FYN binding to human EAT-2” value [4] was 10 fold.

In the case of B7, the “fold weaker than FYN binding to the CD244 ITSM” value [4] is reported as roughly 5 fold.

Source: PMC2757176 (The Journal of biological chemistry, 2009)
